In US10100317B2, “Compositions of matter that reduce pain, shock, and inflammation by blocking linoleic acid metabolites and uses thereof” (Board of Regents of the University of Texas System, priority 2012, dated 2018):
“Also recorded” adds a separate entry of the source.

How the values were obtained:
TRPV1 in the spinal cord = conditions: completely reversible by a TRPV1 antagonist; cited from earlier work
[1] = tested on: LA-evoked nofifensive behaviors; assay: LA-evoked nocifensive behaviors after capsazepine pretreatment (FIG. 3B); format: in vivo; conditions: pretreatment before linoleic acid
normal rats = assay: Spontaneous nocifensive behaviors after linoleic acid injection in normal rats (FIG. 3A); format: in vivo, rat
[2] = tested on: TRPV1 knock-out (KO) mice; assay: LA-triggered nocifensive behaviors in TRPV1 knock-out versus wild type mice (FIG. 3C); format: in vivo; conditions: TRPV1 KO mice compared to wild type mice
[3] = tested on: rat hindpaws inflamed with complete Freund's adjuvant (CFA); assay: Pain responses in rat hindpaws inflamed with complete Freund's adjuvant (CFA); format: in vivo; conditions: local (hindpaw) injection, FIG. 2
[4] = tested on: cultured capsaicin-sensitive neurons; assay: Patch clamp electrophysiology of cultured capsaicin-sensitive neurons; format: cell-based
[5] = SPR analysis (Biacore X100) with immobilized 13(S)-HODE-Biotin; format: binding; conditions: CM5 chip, 1×HBS-EP+ buffer, aptamer 20-80 μM, contact 90 s, dissociation 600 s; read-out: dissociation constant, KD
Experimental: SPR Analysis of H9-3/19F Aptamer and B13-9R Aptamer with 13(S)-HODE-Biotin
(§1) 13(S)-HODE-Biotin was immobilized on a CM5 sensor chip utilizing biotin-streptavidin chemistry. Various concentrations of H9-3/19F aptamer (SEQ ID. NO. 84) were flowed through the Biacore X100 with 1×HBS-EP+ running buffer at a flow rate of 30 μl/min and allowed a contact time with the surface-bound ligand of 90 seconds, followed by a dissociation time set at 600 seconds. The following concentrations of aptamer were used: 20 μM, 40 μM, 60 μM and 80 μM.
as §1, with “B13-9R” for “H9-3/19F”, “67)” for “84)”

[6] = ELASA (ELISA-like) plate screening of aptamers against 9-HODE; format: binding; conditions: for Affinity ranking in ELASA plate screening: 9-HODE target, three trials, done in triplicate; for Trial 1 Abs 405 nm: ELASA trial 1; for Trial 3 Abs 405 nm: ELASA trial 3
Experimental: (§2) To evaluate, screen, and rank aptamers based on affinity against their cognate HODE isomers, two different approaches are used. The first involved the use of Corning Costar Universal Bind™ microplates (No. 2503) for ultraviolet (UV) immobilization of 200 ng/well of unlabeled HODES to the plate's surface (Bruno et al., 2008 and 2009) using 0.2 Joules/cm^2 in a UV crosslinker oven for 15 minutes. The second involved streptavidin (SAv)-coated microwell strips (Nunc, Inc. Catalogue #436020) in which 400 ng of the biotinylated-13-HODE are immobilized for 30 minutes at RT with gentle mixing in 200 μl of PBS per well.
(§3) Plates or wells are decanted and washed three times in 250 μl of 1×BB. Each of the different 5′-biotinylated aptamers raised against the target is dissolved in 1×BB at 1.00 nmole per 100 microliters and applied to their corresponding plate wells for 1 hour at RT with gentle mixing on an orbital shaker. The plate is decanted and washed three times in 250 μl of 1×BB for at least 5 minutes per wash with gentle mixing. One hundred μl of a 1:2,000 dilution of SAv-peroxidase from a 5 mg/ml stock solution in 1×BB is added per well for 30 minutes at RT with gentle mixing. The plate is decanted and washed three times with 250 μl of 1×BB per well as before.
(§4) One hundred μl of ABTS (2,2′-azino-bis(3-ethylbenzthiazoline-6-sulphonic acid) substrate with stabilized hydrogen peroxide (Kirkegaard Perry Laboratories, Inc., Gaithersburg, Md.) is added per well for 10 minute at RT. Various deletion control wells without biotinylated aptamers or SAv-peroxidase are set up and evaluated to establish background levels as well. Finally absorbance is quantified using a microplate reader with 405 nm optical filter.
(§5) These aptamers were: H9-3/19F and B13-9R for the 9-HODE and biotinylated 13-HODE targets respectively and they proceeded into animal testing.

[7] = ELASA (ELISA-like) plate screening of aptamers against 13-HODE / biotinylated 13-HODE; format: binding; conditions: for Trial 1 Abs 405 nm: ELASA trial 1; for Trial 1 Abs 405 nm / Trial 2 Abs 405 nm / Trial 3 Abs 405 nm: 13-HODE / biotinylated 13-HODE aptamers, absorbance 10-15 minutes after final addition of ABTS substrate; for Trial 2 Abs 405 nm: ELASA trial 2; for Trial 3 Abs 405 nm: ELASA trial 3; for Affinity ranking in ELASA plate screening: biotinylated 13-HODE target, three trials, done in triplicate
Experimental: as §2, §3, §4, §5

[8] = 9-HODE aptamers, absorbance 10-15 minutes after final addition of ABTS substrate

For COc1cc(CNC(=O)CCCC/C=C/C(C)C)ccc1O [capsaicin], the tactile allodynia (TRPV1 in the spinal cord) is given as “results in tactile allodynia”.

In the case of “9-hydroxyoctadecadienoic acid [Aptamer 9-HODE]”, the tactile allodynia (TRPV1 in the spinal cord) is given as “results in tactile allodynia”.

In the case of Oc1cc2c(cc1O)CN(C(=S)NCCc1ccc(Cl)cc1)CCC2 [capsasepine], the LA-evoked nocifensive behaviors [1] is reported as “significantly reduced”.

In the case of CCCCC/C=C\C/C=C\CCCCCCCC(=O)O [linoleic acid, cis, cis-9,12-octadecadienoic acid], the spontaneous nocifensive behaviors (normal rats) is reported as “does not produce a significant increase” and the LA-triggered nocifensive behaviors [2] is reported as “significantly reduced”.

B1: 5′-ATACGGGAGCCAACACCACCGAATGTGCTGCAGGACTAATCTGGATGGCCATGCAGAGCAGGTGTGACGGAT-3′ (nucleic acid)
DNA: ATACGGGAGCCAACACCACCGAATGTGCTGCAGGACTAATCTGGATGGCCATGCAGAGCAGGTGTGACGGAT
modifications: DNA, backbone not given here
notes: DNA aptamer for the OLAM 9-HODE
With B1 the “pain responses to mechanical stimuli” value [3] was “significant reduction in pain responses”, the “pain responses to thermal stimuli” value [3] was “significant reduction in pain responses” and the “block of capsaicin response (selectivity)” value ([4]; capsaicin itself / TRPV1 directly) was “does not block capsaicin itself”. The “activation of cultured capsaicin-sensitive neurons” value ([4]; pre-treatment with aptamer, 9-HODE response, preliminary data, FIG. 1) was “blocks activation”, the Kd [5] was 0.129 nM and the “Affinity ranking in ELASA plate screening” value (shortened to “Affinity ranking”) [6] was “highest affinity; also recorded: top two to three strongest absorbance signals”. The “Affinity ranking” value ([6]; listed as SEQ ID NO. 84) was “highest binding affinity”, the “Trial 1 Abs 405 nm” value [6, 8] was 2.081 and the “Trial 2 Abs 405 nm” value ([6]; ELASA trial 2, 9-HODE aptamers, absorbance 10-15 minutes after final addition of ABTS substrate) was 1.648. For the same molecule, the “Trial 3 Abs 405 nm” value [6, 8] was 1.640.

B2: H9-3/19R: DNA aptamer clone, 9-HODE target (nucleic acid)
DNA: ATCCGTCACACCTGCTCTGCATGGCCATCCAGATTAGTCCTGCAGCACATTCGGTGGTGTTGGCTCCCGTAT
modifications: DNA, backbone not given here
notes: DNA aptamer clone, 9-HODE target
For B2, the “Trial 1 Abs 405 nm” value [6, 8] was 1.571.

B3: 5′-ATCCGTCACACCTGCTCTGGGGGGGGAAGCTCGTGGTATAAGGGGCGTTGAGGTGGTGTTGGCTCCCGTAT-3′ (nucleic acid)
DNA: ATCCGTCACACCTGCTCTGGGGGGGGAAGCTCGTGGTATAAGGGGCGTTGAGGTGGTGTTGGCTCCCGTAT
modifications: DNA, backbone not given here
notes: DNA aptamer for the OLAM 13-HODE
In the case of B3, the “Trial 1 Abs 405 nm” value [7] is reported as 1.549, the “Trial 2 Abs 405 nm” value [7] is reported as 1.885 and the “Trial 3 Abs 405 nm” value [7] is reported as 1.964. For the same molecule, the “Affinity ranking” value [7] was “highest affinity; also recorded: top two to three strongest absorbance signals”, the “Affinity ranking” value ([7]; listed as SEQ ID NO. 67) was “highest binding affinity” and the Kd [5] was 2.56 nM.

B4: H13-1/2-4/6-8/14-18/20F: DNA aptamer clone, 13-HODE target (nucleic acid)
DNA: ATACGGGAGCCAACACCACAAAGTTTAGCGTTATGCAACTCCCCCTTATACTCGAGAGCAGGTGTGACGGAT
modifications: DNA, backbone not given here
notes: DNA aptamer clone, 13-HODE target
For B4, the “Trial 2 Abs 405 nm” value [7] was 1.199 and the “Trial 3 Abs 405 nm” value [7] was 1.387.

B5: H9-2/4-6/8a/9b/14/20F: DNA aptamer clone, 9-HODE target (nucleic acid)
DNA: B4 DNA
modifications: DNA, backbone not given here
notes: as for B2
For B5, the “Trial 3 Abs 405 nm” value [6, 8] was 1.249.

B6: B13-1a/4/6/15/17/19/20R: DNA aptamer clone, biotinylated 13-HODE target (nucleic acid)
DNA: ATCCGTCACACCTGCTCTCGAGTATAAGGGGGAGTTGCATAACGCTAAACTTTGTGGTGTTGGCTCCCGTAT
modifications: DNA, backbone not given here
notes: DNA aptamer clone, biotinylated 13-HODE target
In the case of B6, the “Trial 2 Abs 405 nm” value [7] is reported as 1.595.

B7: B13-10bR: DNA aptamer clone, biotinylated 13-HODE target (nucleic acid)
DNA: ATCCGTCACACCTGCTCTGCGGACAGCGGTTGCGCATATATCGTGGCAGTGGGCTGGTGTTGGCTCCCGTAT
modifications: DNA, backbone not given here
notes: as for B6
For B7, the “Trial 2 Abs 405 nm” value [7] was 1.214.

B8: B13-8F: DNA aptamer clone, biotinylated 13-HODE target (nucleic acid)
DNA: ATACGGGAGCCAACACCAGCGAAGCCAAAACTGGTCGGGCCGACGGGATTCGTTAGAGCAGGTGTGACGGAT
modifications: DNA, backbone not given here
notes: as for B6
For B8, the “Trial 1 Abs 405 nm” value [7] was 1.490.

B9: B13-12R: DNA aptamer clone, biotinylated 13-HODE target (nucleic acid)
DNA: ATCCGTCACACCTGCTCTGCCATTGAATCTCATATGGTGCTCGAGTAGCTGGTGTGGTGTTGGCTCCCGTAT
modifications: DNA, backbone not given here
notes: as for B6
For B9, the “Trial 3 Abs 405 nm” value [7] was 1.310.

B10: H13-12F: DNA aptamer clone, 13-HODE target (nucleic acid)
DNA: ATACGGGAGCCAACACCATGTTACATCAACTGCATGAAGACGAGGAATGTGATGAGAGCAGGTGTGACGGAT
modifications: DNA, backbone not given here
notes: as for B4
For B10, the “Trial 1 Abs 405 nm” value [7] was 1.442.
